Data as given in patent US8466270B2, “Methods for using artificial polynucleotides and compositions thereof to reduce transgene silencing” (Monsanto Technology LLC, priority 2002, dated 2013).

B1: CP4EPSPS_AT: Artificial polynucleotide encoding the CP4EPSPS protein using the Arabidopsis codon usage table (nucleic acid, listed as Agrobacterium tumefaciens)
DNA: ATGCTTCATGGAGCTTCATCTAGGCCAGCTACTGCCAGGAAGTCTAGCGGGCTCAGTGGCACCGTGCGCATCCCTGGCGATAAAAGTATTTCACACAGGAGCTTCATGTTCGGAGGACTTGCTAGTGGAGAGACGAGAATCACTGGTTTGCTTGAGGGCGAAGATGTTATCAACACCGGTAAGGCGATGCAAGCAATGGGTGCCAGAATCCGAAAAGAGGGCGATACGTGGATCATCGACGGTGTTGGTAACGGAGGATTGCTCGCTCCCGAAGCGCCACTTGACTTTGGGAACGCAGCTACGGGGTGCCGTCTTACTATGGGACTGGTAGGCGTGTATGACTTTGACTCTACCTTCATCGGTGACGCGAGCCTCACTAAGAGACCAATGGGACGAGTGCTGAATCCCCTGAGGGAGATGGGTGTCCAGGTGAAATCTGAGGATGGTGATCGTCTTCCGGTTACTCTGCGAGGCCCCAAGACCCCCACGCCAATCACGTACAGGGTTCCGATGGCGTCAGCACAGGTCAAGTCAGCGGTACTCCTGGCGGGCCTCAACACACCTGGAATCACAACCGTGATTGAACCCATCATGACTAGAGACCACACGGAGAAGATGTTGCAGGGTTTCGGCGCTAATCTAACGGTCGAAACCGACGCCGACGGCGTGAGGACAATCCGCTTGGAGGGCAGAGGTAAACTGACTGGCCAAGTCATCGATGTGCCTGGAGATCCCTCGTCCACAGCGTTTCCCCTCGTAGCTGCGTTGCTCGTCCCTGGATCTGATGTGACGATCCTGAATGTCCTCATGAATCCAACTAGAACCGGCCTCATCCTCACATTGCAGGAGATGGGTGCTGACATCGAGGTTATCAATCCTAGGTTGGCAGGTGGAGAGGATGTGGCCGATCTGCGCGTGCGTTCTAGTACACTCAAAGGCGTGACCGTCCCTGAGGATCGCGCTCCATCCATGATCGACGAGTACCCCATTCTCGCCGTTGCTGCTGCGTTTGCCGAGGGCGCAACTGTAATGAACGGCCTTGAGGAGTTGAGGGTTAAGGAGAGTGACAGGCTGTCCGCGGTGGCGAATGGCCTGAAGCTAAACGGCGTGGACTGCGACGAAGGTGAAACGTCCCTTGTAGTCCGTGGTCGCCCAGACGGGAAGGGGTTGGGGAATGCTTCGGGAGCTGCTGTGGCGACGCACCTTGATCATAGAATCGCCATGTCATTTCTGGTGATGGGACTTGTCTCCGAGAATCCGGTGACCGTTGACGATGCTACCATGATCGCCACCTCCTTTCCTGAGTTCATGGACCTCATGGCAGGCTTGGGGGCCAAGATCGAGCTGTCTGATACTAAGGCCGCTTGA
B2: CP4EPSPS_ZM: Artificial polynucleotide encoding the CP4EPSPS protein using the Zea mays codon usage table (nucleic acid, listed as Agrobacterium tumefaciens)
DNA: ATGCTACACGGTGCAAGCAGCCGGCCGGCAACCGCTCGCAAATCTTCCGGCCTTTCGGGAACGGTCAGGATTCCGGGCGATAAGTCCATATCCCACCGGTCGTTCATGTTCGGCGGTCTTGCCAGCGGTGAGACGCGCATCACGGGCCTGCTTGAAGGTGAGGACGTGATCAATACCGGGAAGGCCATGCAGGCTATGGGAGCGCGTATCCGCAAGGAAGGTGACACATGGATCATTGACGGCGTTGGGAATGGCGGTCTGCTCGCCCCTGAGGCCCCTCTCGACTTCGGCAATGCGGCGACGGGCTGCAGGCTCACTATGGGACTGGTCGGGGTGTACGACTTCGATAGCACGTTCATCGGAGACGCCTCGCTCACAAAGCGCCCAATGGGCCGCGTTCTGAACCCGTTGCGCGAGATGGGCGTACAGGTCAAATCCGAGGATGGTGACCGTTTGCCCGTTACGCTGCGCGGGCCGAAGACGCCTACCCCGATTACCTACCGCGTGCCAATGGCATCCGCCCAGGTCAAGTCAGCCGTGCTCCTCGCCGGACTGAACACTCCGGGCATCACCACGGTGATCGAGCCCATCATGACCAGGGATCATACCGAAAAGATGCTTCAGGGGTTTGGCGCCAACCTGACGGTCGAGACGGACGCTGACGGCGTCAGGACCATCCGCCTTGAGGGCAGGGGTAAACTGACTGGCCAAGTCATCGATGTTCCGGGAGACCCGTCGTCCACGGCCTTCCCGTTGGTTGCGGCGCTGCTCGTGCCGGGGAGTGACGTGACCATCCTGAACGTCCTCATGAACCCGACCAGGACCGGCCTGATCCTCACGCTTCAGGAGATGGGAGCCGACATCGAGGTGATCAACCCGCGCCTGGCAGGCGGTGAAGACGTTGCGGATCTGCGCGTGCGCTCCTCTACCCTGAAGGGCGTGACGGTCCCGGAAGATCGCGCGCCGTCCATGATAGACGAGTATCCTATTCTGGCCGTCGCCGCTGCGTTCGCCGAAGGGGCCACGGTCATGAACGGTCTTGAGGAACTCCGCGTGAAGGAATCGGATCGCCTGTCGGCGGTGGCCAATGGCCTGAAGCTCAACGGTGTTGACTGCGACGAGGGTGAGACCTCACTCGTGGTCCGTGGCCGGCCTGATGGCAAGGGCCTCGGCAACGCCAGTGGAGCGGCCGTCGCCACGCACCTCGATCATCGCATCGCGATGTCCTTCTTGGTGATGGGTCTCGTCTCAGAGAACCCGGTGACCGTCGATGACGCCACGATGATAGCGACGAGCTTCCCAGAGTTCATGGATCTGATGGCGGGCCTCGGGGCCAAGATCGAACTGTCTGACACGAAGGCCGCTTGA

Tests used:
[1] = tested on: transgenic cotton plants; assay: Cotton transformation (transformation efficiency, insert number); format: cell-based; conditions: relative to pMON20999
Procedure: (§1) Three plasmid constructs are evaluated in transgenic cotton plants (Table 21). The control construct (pMON20999) contains P-FMV/CP4EPSPS_Syn this expression cassette is contained in the commercially available glyphosate tolerant cotton line 1445 (Roundup Ready® cotton, Monsanto Co., St. Louis, Mo.). The plasmid constructs, pMON59313 and pMON59396 containing the CP4EPSPS_AT and CP4EPSPS_ZM polynucleotides, respectively, are assayed for transformation efficiency and CP4EPSPS enzyme levels relative to the commercial glyphosate tolerant expression cassette. About fifty transgenic cotton lines are evaluated for each construct.

[2] = tested on: transgenic cotton plants; assay: CP4EPSPS ELISA, enzyme level in R0 cotton lines; format: in vivo; conditions: relative to pMON20999 expression cassette
Procedure: as §1

[3] = tested on: CP4EPSPS polynucleotide; assay: PCR detection of artificial CP4EPSPS polynucleotides in transgenic plants; set-up: species or system corn; conditions: amplicon size obtained with the primer pair specific for the gene; second figure in brackets
Source text: A DNA detection method (polymerase chain reaction, PCR) is designed to detect the artificial CP4EPSPS polynucleotides in transgenic plants. The unique sets of DNA primers shown in Table 26 are designed to amplify a specific CP4EPSPS polynucleotide and to provide distinctly sized amplicons. The amplicons differ sufficiently in polynucleotide length among the various CP4EPSPS polynucleotides to make easy separation of the amplicons by standard agarose gel electrophoresis. The presence of more than one of the artificial polynucleotides can be detected in a plant by using a multiplex PCR method.
DNA primer pairs (Table 26) are used to produce an amplicon diagnostic for a specified CP4EPSPS polynucleotide contained in a transgenic plant. These primer pairs include, but are not limited to SEQ ID NO:24 and SEQ ID NO:25 for the CP4EPSPS_AT polynucleotide; SEQ ID NO:26 and SEQ ID NO:27 for the CP4EPSPS_ZM; SEQ ID NO:28 and SEQ ID NO:29 for CP4EPSPS_Nat and SEQ ID NO:30 and SEQ ID NO:31 CP4EPSPS_Syn polynucleotide molecule. In addition to these primer pairs, any primer pair derived from SEQ ID NO:17 or SEQ ID NO:18 that when used in a DNA amplification reaction produces a DNA amplicon diagnostic for the respective CP4EPSPS polynucleotide is an aspect of the present invention. […]

[4] = tested on: transgenic soybean plants; assay: CP4EPSPS enzyme level in transgenic soybean plants; format: in vivo
Procedure: Constructs containing the artificial CP4EPSPS polynucleotides, CP4EPSPS_AT and CP4EPSPS_ZM are evaluated in soybean (Table 22). The plasmid constructs all contain the P-FMV promoter to drive expression of the new CP4EPSPS polynucleotides and are compared to the P-FMV/CP4EPSPS_Syn contained in pMON20999. About 25 to 30 transgenic soybean plants are produced for each construct. The transformation efficiency and CP4EPSPS enzyme, levels are measured.

[5] = tested on: Wheat plants; assay: CP4EPSPS enzyme expression in wheat leaves by ELISA; format: in vivo
Source text: Wheat plants transformed with the new CP4EPSPS polynucleotides are compared for transformation efficiency and CP4EPSPS enzyme expression determined by ELISA (Table 25). […] The average expression of CP4EPSPS in leaves from wheat plants containing the CP4EPSPS_ZM polynucleotide is about 64% of that found in glyphosate resistant wheat that contains a double cassette construct, pMON30139: P-e35S/1-Hsp70/CP4EPSPS_Nat and P-OsAct1/I-OsAct1/CP4EPSPS_Nat (WO/0022704).

Molecule	percentage of plants with a single insert [1]	expression level of the CP4EPSPS enzyme (in words) [2]	PCR product (bps) [3]	expression level of CP4EPSPS protein (in words) [4]	CP4EPSPS enzyme expression relative to CP4EPSPS_AT ([5]; wheat)	CP4 Exp. (%) CP4EPSPS expression ([5]; wheat leaves, relative to pMON30139 double cassette wheat, ELISA)
B1	higher percentage of plants with a single insert	increase in expression level	938 (940) bps			
B2			595 (600) bps	surprisingly high expression level	at least seven times higher	about 64%
